Here are results for 2 molecules from paper PMC6934413.

The target in data set [1] is Smc-HaloTag with J-Cys (S152C) (Bacillus subtilis) (UniProt P51834). As to the kind of experiment: cross-linking.
Data set [2] addresses T1, SmcH-CC100 (Smc hinge with adjacent coiled coil) (Bacillus subtilis, UniProt P51834 400-776).
T1 sequence: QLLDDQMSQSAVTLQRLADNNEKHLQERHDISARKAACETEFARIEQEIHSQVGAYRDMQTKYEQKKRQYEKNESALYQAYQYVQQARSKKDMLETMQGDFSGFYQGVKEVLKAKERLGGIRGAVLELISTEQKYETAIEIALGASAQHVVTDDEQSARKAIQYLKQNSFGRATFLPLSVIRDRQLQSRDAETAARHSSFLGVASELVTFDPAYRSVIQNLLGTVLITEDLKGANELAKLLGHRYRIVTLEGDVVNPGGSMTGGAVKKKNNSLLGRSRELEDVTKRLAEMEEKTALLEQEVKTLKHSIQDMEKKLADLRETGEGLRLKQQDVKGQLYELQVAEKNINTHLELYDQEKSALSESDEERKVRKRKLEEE
As to the kind of experiment: fluorescence anisotropy.

In a further data set the target is T2, SmcHd(EQ,3A-hd);ScpA-N (Bacillus subtilis;Bacillus subtilis, UniProt P51834;P51834;P35154 1-219;983-1186;1-86, K60A;R120A;K122A;EQ|).
T2 sequence 1: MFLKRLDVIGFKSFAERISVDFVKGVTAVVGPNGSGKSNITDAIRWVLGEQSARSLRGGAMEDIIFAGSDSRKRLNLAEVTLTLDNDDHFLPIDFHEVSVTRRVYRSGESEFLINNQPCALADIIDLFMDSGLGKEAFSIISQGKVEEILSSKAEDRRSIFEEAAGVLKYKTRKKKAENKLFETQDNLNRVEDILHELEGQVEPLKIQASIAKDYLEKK
T2 sequence 2: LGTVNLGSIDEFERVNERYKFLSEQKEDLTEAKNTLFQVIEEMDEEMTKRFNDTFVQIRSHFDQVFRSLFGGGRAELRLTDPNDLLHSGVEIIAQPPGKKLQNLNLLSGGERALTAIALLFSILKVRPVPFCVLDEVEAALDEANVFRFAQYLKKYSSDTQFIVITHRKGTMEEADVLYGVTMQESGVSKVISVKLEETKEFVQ
T2 sequence 3: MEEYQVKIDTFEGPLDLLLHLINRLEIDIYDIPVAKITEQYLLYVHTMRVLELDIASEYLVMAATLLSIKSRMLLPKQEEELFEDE
As to the kind of experiment: fluorescence anisotropy.

A further data set deals with T3, SmcHd(EQ);ScpA-N (Bacillus subtilis;Bacillus subtilis, UniProt P51834;P35154 1-219+=GPG+983-1186;1-86, E1118Q;internal_change|).
T3 sequence 1: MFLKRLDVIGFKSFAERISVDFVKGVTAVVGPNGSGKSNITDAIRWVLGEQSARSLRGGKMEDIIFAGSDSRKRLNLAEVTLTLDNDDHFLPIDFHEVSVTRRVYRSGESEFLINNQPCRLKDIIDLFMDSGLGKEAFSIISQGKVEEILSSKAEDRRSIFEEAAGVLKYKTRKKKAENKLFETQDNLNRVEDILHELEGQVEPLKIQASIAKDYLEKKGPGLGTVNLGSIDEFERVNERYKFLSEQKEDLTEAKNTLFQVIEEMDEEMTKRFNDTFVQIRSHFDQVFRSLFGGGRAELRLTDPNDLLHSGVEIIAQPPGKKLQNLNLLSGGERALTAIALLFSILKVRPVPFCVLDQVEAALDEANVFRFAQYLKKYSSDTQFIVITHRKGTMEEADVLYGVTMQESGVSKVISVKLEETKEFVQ
T3 sequence 2: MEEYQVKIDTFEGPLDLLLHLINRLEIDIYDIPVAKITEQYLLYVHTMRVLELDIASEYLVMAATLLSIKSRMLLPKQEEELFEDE
Put plainly: fluorescence anisotropy.

“Smc-HaloTag with J-Cys (S152C) (from UniProt P51834 1-1186) (natural protein)”: the fraction of Smc-HT in the cross-linked species in data set [1] came to 66%.

B1: 40 bp random sequence dsDNA (dsDNA)
DNA 1: TTAGTTGTTCGTAGTGCTCGTCTGGCTCTGGATTACCCGC
DNA 2: GCGGGTAATCCAGAGCCAGACGAGCACTACGAACAACTAA
With B1, the binding result in data set [2] is on record as “binds”; with SmcHd(EQ,3A-hd);ScpA-N, “no binding”; in the data set with SmcHd(EQ);ScpA-N it was “binds”.
